Target: T1, EGFR (UniProt P00533 25-645, limits assumed)
T1 construct: also called 表皮生长因子受体
Assay: not described (summary of experimental results; compared with C225, 2F8 and 3C6)

B1: 全人源抗EGFR抗体15H8 (antibody, human IgG1, kappa, V domains shown)
VH: EVQLVESGGGLVQPGGSLRLSCAASGFTFSSYAMHWVRQAPGKGLEYVSAISSNGGSTYYANSVKGRFTISRDNSKNTLYLQMGSLRAEDMAVYYCAREGYSSSWYHNWFDSWGQGTLVTVSS
VL: DIVMTQTPLSLPVTPGEPASISCRSSQSLLDSDDGNTYLDWYLQKPGQSPQLLIYTLSYRASGVPDRFSGSGSGTDFTLKISRVEAEDVGVYYCMQRIEFPSLYTFGQGTKLEIKR
notes: Whole human antibody expressed in CHO-K1 and purified on Protein A. The expression genes carry a signal peptide, printed only as nucleotides; also called 15H8抗体; 全人源抗体15H8
binding result: binds

— patent CN102167743A (BAIMAIBO PHARMACEUTICAL CO LTD, dated 2011)
